Results on four molecules are retold here after article PMC5204125, “Primase is required for helicase activity and helicase alters the specificity of primase in the enteropathogen Clostridium difficile” (Open Biology, 2016).

The target of test [1] is T1, CD3657 helicase with CD3654 helicase loader (Clostridioides difficile, UniProt Q181Q5+Q181Q8).
T1 construct: gene dnaC; full-length open reading frames, non-tagged, expressed in E. coli BL21(DE3) from pET vectors; CD3657 monomer 49 kDa, CD3654 38 kDa; most probably 6:6 dodecamer with ATP (522 kDa); with Helicase loader ATPase (DnaI-like AAA+ protein)
T1 sequence (Q181Q8 1-442): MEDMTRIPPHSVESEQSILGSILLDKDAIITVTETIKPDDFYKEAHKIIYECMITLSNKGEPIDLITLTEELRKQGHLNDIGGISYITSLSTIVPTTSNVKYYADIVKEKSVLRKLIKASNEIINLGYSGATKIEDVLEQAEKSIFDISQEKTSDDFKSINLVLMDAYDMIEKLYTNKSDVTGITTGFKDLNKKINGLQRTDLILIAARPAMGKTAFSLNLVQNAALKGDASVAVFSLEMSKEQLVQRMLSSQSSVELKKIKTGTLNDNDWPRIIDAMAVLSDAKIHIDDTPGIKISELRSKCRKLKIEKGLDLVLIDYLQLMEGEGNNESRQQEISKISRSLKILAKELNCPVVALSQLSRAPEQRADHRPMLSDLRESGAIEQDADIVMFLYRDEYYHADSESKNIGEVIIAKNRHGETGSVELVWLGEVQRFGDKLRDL
T1 sequence (Q181Q5 1-330): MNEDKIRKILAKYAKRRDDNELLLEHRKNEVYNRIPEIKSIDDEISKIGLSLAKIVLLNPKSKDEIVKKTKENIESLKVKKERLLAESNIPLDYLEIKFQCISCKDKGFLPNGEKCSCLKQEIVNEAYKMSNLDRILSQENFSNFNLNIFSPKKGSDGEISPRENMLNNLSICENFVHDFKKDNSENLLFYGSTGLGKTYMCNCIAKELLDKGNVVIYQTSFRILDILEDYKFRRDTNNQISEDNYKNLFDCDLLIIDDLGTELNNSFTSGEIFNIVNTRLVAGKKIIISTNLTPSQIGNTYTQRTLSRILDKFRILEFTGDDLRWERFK
Nature of the test: analytical gel filtration (Superdex […]) with SDS-PAGE. The note with it: 1 mM ATP; 2.21 uM each protein (monomer); ATP site inferred by the authors to be on CD3657 (Walker A), ATP binding itself not measured. (In gel filtration, larger molecules generally elute earlier.)

In test [2] the target is C. difficile replicative helicase CD3657, purified non-tagged (Clostridium difficile).
Test [3] has the same target. The source holds these as a separate data set.
In test [4] the target is CD3657 helicase, bacterial two-hybrid fusion (Clostridium difficile). Nature of the test: two-hybrid; bacterial two-hybrid: Zif fusion and RNA polymerase ω subunit fusion, Zif-dependent lacZ reporter in E. coli KDZif1ΔZ, β-galactosidase activity, n = 3.
In test [5] the target is CD3654 putative helicase loader, bacterial two-hybrid fusion (Clostridium difficile). The description is as above.
Test [6] deals with C. difficile replicative helicase CD3657, purified non-tagged (Clostridium difficile). The test can be described thus: SEC; analytical gel filtration, Superdex 200 10/300 GL, CD3657 and CD3654 equimolar 2.21 µM (monomer), with 1 mM ATP; fractions on SDS-PAGE.
In test [7] the target is C. difficile putative helicase loader CD3654, purified non-tagged (Clostridium difficile). Described as above.
For test [8], the target named is C. difficile replicative helicase CD3657, purified non-tagged (Clostridium difficile). The test can be described thus: SEC; analytical gel filtration, Superdex 200 10/300 GL, CD3657 and CD3654 equimolar 2.21 µM (monomer), without ATP; fractions on SDS-PAGE.
For test [9] the target is unchanged. Nature of the test: SEC; analytical gel filtration of CD3657 and CD3654 at high concentrations (approx. 10 µM); Figure S3.
Test [10] has the same target. The test can be described thus: SEC; analytical gel filtration of purified CD3657 alone, at 10 µM and above (monomer).

For the molecule `Nc1ncnc2c1ncn2[C@@H]1O[C@H](COP(=O)(O)OP(=O)(O)OP(=O)(O)O)[C@@H](O)[C@H]1O` [ATP], the “analytical gel filtration (Superdex 200) with SDS-PAGE” value in test [1] is “CD3657 helicase and the loader CD3654 can form a complex in an ATP-dependent manner”.

Regarding “C. difficile primase CD1454, purified without an affinity tag (enzyme)”, the RNA primer production by CD1454 on the 5′-d(CTA) 23-mer ssDNA template with against without CD3657, at [CD3657]6:[CD1454]3 in test [2] is 45.9 nmol. The molecule further returned a helicase assay: displacement of a radiolabelled oligonucleotide annealed to ssM13 by CD3657 with equimolar CD1454 against CD3657 alone, time course to 35 min in [3] of 3.5 fold.

Consider “CD3657 helicase, bacterial two-hybrid fusion (enzyme)”, for which the fold β-galactosidase activity over the reporter strains with the individual plasmids amounted to 3 fold in test [4] and 5 fold in test [5].

A word on the stoichiometry N: it is the number of molecules, sites or subunits per partner or assembly. As for “C. difficile replicative helicase CD3657, purified non-tagged (enzyme)”, the stoichiometry N in [6], in [8], in [9] and in [10] was 6 throughout. Besides, the stoichiometry N (CD3657 per CD3654 (6:6)) in [7] turned out to be 1.
